Results taken from patent US10525113B2, “Micellar polypeptide vaccine having pegylated phospholipids as carrier” (INSTITUTE OF BIOPHYSICS, CHINESE ACADEMY OF SCIENCES, priority 2014, dated 2020).
Ends that are not written are not given here. * marks the point of attachment. Palmitoyl = CCCCCCCCCCCCCCCC(=O)*

Assays:
[1] = Entrapment efficiency of fatty-acidified antigenic polypeptide in PEG-PE micelle (centrifugation, rhodamine fluorescence); type: physicochemical; conditions: lipid:MPLA (w/w) 100:1
Experimental: According to the proportions shown in Table 2 and Table 3, the micelles containing different proportions of polypeptides are prepared. The preparation process is carried out in the same manner as described in Embodiment 1. The prepared micelle vaccine solutions of different proportions are subjected to 14,000 g high-speed centrifugation for 30 minutes. The undissolved free antigenic polypeptide is separated from the antigen entrapped by micelle in the solution.
The maximal excitation wavelength of the rhodamine fluorescence labeled by the polypeptide is 535 nm and the maximum emission wavelength is 590 nm.
The antigen content in the solution is detected by fluorescence spectrophotometry, and then the effective entrapment efficiency of antigenic polypeptide is calculated according to the formula (see Table 2. Table 3, line 3). It can be seen that, in the condition where the mass ratio of PEG-PE to the fatty-acid-modified polypeptide is greater than or equal to 10:1, the entrapment efficiency is about 100%.

[2] = 100 μL subcutaneous, shoulder; 0 hour to 7 days; FIG. 3
Experimental: 20 μL of 10 mg/mL DMSO stock solution of rhodamine-labeled, fatty-acidified E7 polypeptide (sequence: palmitic acid-[sequence], rhodamine labeled in amino acid K, synthesized in Jill Biochemical Co., Ltd.) is added to 1 mL of sterile water to obtain a fluorescent polypeptide solution with the concentration of 0.2 mg/mL.
10 mg of PEG-PE powder is weighed and dissolved in 1 mL of chloroform in a test tube, and 0.2 mL of solution of rhodamine-labeled, fatty-acidified E7 polypeptide in methanol (1 mg/mL) is taken such that in micelle. The solution is gently shaken according to the method in Embodiment 1 to mix evenly. Nitrogen is used to blow and dry the solution to form a uniform thin membrane. The residual organic solvent and moisture are completely removed in a vacuum drier overnight. 1 mL of sterile normal saline is added, and 53° C. water bath incubation is conducted for 30 minutes for hydrated lipid membrane. A light purple uniform transparent solution is obtained, in which the concentration of fluorescent polypeptide is 0.2 mg/mL. […]
7 mg of DPPC and 3 mg of cholesterol are dissolved in chloroform separately and then mixed in a test tube, and 0.2 mL of solution of rhodamine-labeled, fatty-acidified E7 polypeptide in methanol (1 mg/mL) is taken. […] The concentration of fluorescence polypeptide is 0.2 mg/mL. […]

[3] = water / aqueous solution
Experimental: Thus, free antigenic polypeptide can be separated from the antigenic polypeptide loaded on micelle, and then the entrapment efficiency of antigenic polypeptide is calculated based on the change in the content of the antigenic polypeptide loaded on micelle in the solution. The entrapment efficiency=the amount of antigen to be entrapped/total antigen ×100%.

| Substance | entrapment efficiency (%) ([1]; lipid:peptide (w/w) 1:1) | entrapment efficiency (%) ([1]; lipid:peptide (w/w) 2:1) | entrapment efficiency (%) ([1]; lipid:peptide (w/w) 5:1) | entrapment efficiency (%) ([1]; lipid:peptide (w/w) 10:1) | entrapment efficiency (%) ([1]; lipid:peptide (w/w) 20:1) | entrapment efficiency (%) ([1]; lipid:peptide (w/w) 50:1) | subcutaneous diffusion / localized retention at injection site [2] | solubility / state in water [3] |
| --- | --- | --- | --- | --- | --- | --- | --- | --- |
| palmitic acid-EQLESIINFEKLTEWKD (Palmitoyl-EQLESIINFEKLTEWKD) [OT-1 Antigenic Polypeptide] | 27.91% | 40.10% | 91.76% | 100.00% | 100.00% | 100.00% |  |  |
| palmitic acid-GQAEPDRAHYNIVTFCCKCD (Palmitoyl-GQAEPDRAHYNIVTFCCKCD; cysteine pairing not given here) [E7 Antigenic Polypeptide] | 25.48% | 67.76% | 97.99% | 100.00% | 100.00% | 100.00% | subcutaneous localized retention at the injection site is evident | present in an aggregated form in aqueous solution |
